Assays:
Test in all cases: Dark and photocytotoxicity (MTT)
Assay type in all cases: cell-based, human
A549 cells = conditions: without light irradiation, up to 4 μM, all conditions (with or without inhibitors)
Procedure: (§1) The dark- and photocytotoxicity of 1 was also investigated against all four cell lines under the different conditions as described, using 14 as a negative control. […] Without light irradiation, both 1 and 14 were noncytotoxic up to 4 μM for all conditions. Upon light irradiation (λ > 610 nm, 23 mW cm^–2, 28 J cm^–2), both conjugates however could induce a different extent of cytotoxicity. […] The results could be attributed to the intrinsic difference in the MMP-2 levels in these cells. […] The photocytotoxicity was further reduced under the dual inhibition condition, for which the IC50 values (>4 μM) also could not be determined. […] The overall results generally followed the trend of intracellular ROS generation as reported above. […]
(§2) Approximately 2 × 10^4 cells per well (100 µL) in the corresponding medium were inoculated in 96-well plates and incubated overnight at 37 °C in a humidified 5% CO 2 atmosphere. A stock solution of 1 or 14 (1 mM) was prepared as described above, which was diluted with a serum-free medium to various concentrations. The cells, after being rinsed with PBS twice, were treated with or without SB -3CT (10 μM) and/or CA -074 Me (25 μM) in the medi um (100 μL) for 2 h. The cells were further incuba ted with 100 μL of different concentrations of 1 or 14 for 1 h at 37 °C under 5% CO2. After being rinsed with PBS twice, the cells were incubated in the culture medium (100 μL) for 6 h. The cells were then rinsed with PBS and re -fed with 100 μL of a serum-containing medium before being irradiated (λ > 610 nm, 23 mW cm –2, 28 J cm– 2) at ambient temperature. Cell viability was determined by means of a colorimetric MTT assay.R7 After irradiation, the cells were incubated at 37 °C under 5% CO 2 overnight. After incubation, the medium was removed and the cell s were rinsed with PBS twice. A MTT (S igma) solution in PBS (3 mg mL -1, 50 μL) was added to each well followed by incubation for 4 h under the same environment. DMSO (100 μL) was then added to each well. Solutions in all the wells were mixed until homogenous. The absorbance at 490 nm of each w ell on the plate was […]
(§3) taken by a microplate reader (Tecan Spark 10M) at ambient temperature. The average […]
(§4) of the other wells. The cell viability was then determined by the equation: […]
(§5) where Ai is the absorbance of the ith datum (i = 1, 2, …, n), Acontrol is the average absorbance of the control wells in which the compound was absent, and n (= 4) is the number of data points. […]

HEK-293 cells = conditions: for dark cytotoxicity: without light irradiation, up to 4 μM, all conditions
Procedure: as §1, §2, §3, §4, §5

HeLa cells = conditions: without light irradiation, up to 4 μM, all conditions
Procedure: as §1, §2, §3, §4, §5

U-87 MG cells = conditions: without light irradiation, up to 4 μM, all conditions
Procedure: as §1, §2, §3, §4, §5

Row | SMILES | dark cytotoxicity (A549 cells) | IC50 (HEK-293 cells; no inhibitor, 1 h + 6 h, light λ > 610 nm, 23 mW cm-2, 28 J cm-2) [µM] | dark cytotoxicity (HEK-293 cells) | dark cytotoxicity (HeLa cells) | dark cytotoxicity (U-87 MG cells)
1 | CCN(CC)c1ccc2nc3ccc(/N=N/c4ccc(N(C)CCCNC(=O)OC[C@@H]5[C@@H]6CCc7nnn(CC(=O)NCCCC[C@@H]8NC(=O)CNC(=O)[C@H](CCCCN)NC(=O)[C@H](CCCNC(=N)N)NC(=O)[C@H](C(C)C)NC(=O)CNC(=O)[C@H](CC(C)C)NC(=O)[C@@H]9CCCN9C(=O)[C@H](CCCCN)NC(=O)[C@@H](N)CSCc9cc(COc%10ccc(C%11=C%12C(C)=C(I)C(/C=C/c%13ccc(OCCOCCOCCOC)cc%13)=[N+]%12[B-](F)(F)n%12c(/C=C/c%13ccc(OCCOCCOCCOC)cc%13)c(I)c(C)c%12%11)cc%10)cc(c9)CSC[C@@H](C(N)=O)NC(=O)[C@H](CCCCN)NC(=O)[C@H](CCCCN)NC(=O)CNC(=O)[C@H](CC(C)C)NC(=O)[C@H](Cc9ccccc9)NC(=O)CNC(=O)[C@H](CCCCN)NC(=O)CNC8=O)c7CC[C@@H]65)cc4)cc3[n+](-c3ccccc3)c2c1 [compound 1] | noncytotoxic | > 4 | noncytotoxic | noncytotoxic | noncytotoxic
2 | CCN(CC)c1ccc2nc3ccc(/N=N/c4ccc(N(C)CCCNC(=O)OC[C@@H]5[C@@H]6CCc7nnn(CC(=O)NCCCC[C@@H]8NC(=O)CNC(=O)[C@H](CCCCN)NC(=O)CNC(=O)CNC(=O)CNC(=O)CNC(=O)CNC(=O)[C@H](CCCCN)NC(=O)[C@@H](N)CSCc9cc(COc%10ccc(C%11=C%12C(C)=C(I)C(/C=C/c%13ccc(OCCOCCOCCOC)cc%13)=[N+]%12[B-](F)(F)n%12c(/C=C/c%13ccc(OCCOCCOCCOC)cc%13)c(I)c(C)c%12%11)cc%10)cc(c9)CSC[C@@H](C(N)=O)NC(=O)[C@H](CCCCN)NC(=O)[C@H](CCCCN)NC(=O)CNC(=O)CNC(=O)CNC(=O)CNC(=O)[C@H](CCCCN)NC(=O)CNC8=O)c7CC[C@@H]65)cc4)cc3[n+](-c3ccccc3)c2c1 [compound 14] | noncytotoxic |  | noncytotoxic | noncytotoxic | noncytotoxic

Reference: paper PMC10080691, “Enzyme-Responsive Double-Locked Photodynamic Molecular Beacon for Targeted Photodynamic Anticancer Therapy” (Journal of the American Chemical Society, 2023)
